Assay [1] deals with T1, full-length MUC1 (human, UniProt P15941 24-1255, limits assumed).
T1 construct: also called full-length MUC1 Receptor; Mucin 1 precursor
As to the kind of experiment: co-immunoprecipitation with Ab5 from human iPS and HES cell lysates, Western blot for NME7. (Immunoblotting shows a protein as a band on a membrane.)

The target of assay [2] is T1, full-length MUC1. As to the kind of experiment: co-immunoprecipitation gel stripped and re-probed with an anti-MUC1* (PSMGFR) antibody.

T1 sequence (P15941 other isoform, or with tags, fused parts or gaps limits assumed): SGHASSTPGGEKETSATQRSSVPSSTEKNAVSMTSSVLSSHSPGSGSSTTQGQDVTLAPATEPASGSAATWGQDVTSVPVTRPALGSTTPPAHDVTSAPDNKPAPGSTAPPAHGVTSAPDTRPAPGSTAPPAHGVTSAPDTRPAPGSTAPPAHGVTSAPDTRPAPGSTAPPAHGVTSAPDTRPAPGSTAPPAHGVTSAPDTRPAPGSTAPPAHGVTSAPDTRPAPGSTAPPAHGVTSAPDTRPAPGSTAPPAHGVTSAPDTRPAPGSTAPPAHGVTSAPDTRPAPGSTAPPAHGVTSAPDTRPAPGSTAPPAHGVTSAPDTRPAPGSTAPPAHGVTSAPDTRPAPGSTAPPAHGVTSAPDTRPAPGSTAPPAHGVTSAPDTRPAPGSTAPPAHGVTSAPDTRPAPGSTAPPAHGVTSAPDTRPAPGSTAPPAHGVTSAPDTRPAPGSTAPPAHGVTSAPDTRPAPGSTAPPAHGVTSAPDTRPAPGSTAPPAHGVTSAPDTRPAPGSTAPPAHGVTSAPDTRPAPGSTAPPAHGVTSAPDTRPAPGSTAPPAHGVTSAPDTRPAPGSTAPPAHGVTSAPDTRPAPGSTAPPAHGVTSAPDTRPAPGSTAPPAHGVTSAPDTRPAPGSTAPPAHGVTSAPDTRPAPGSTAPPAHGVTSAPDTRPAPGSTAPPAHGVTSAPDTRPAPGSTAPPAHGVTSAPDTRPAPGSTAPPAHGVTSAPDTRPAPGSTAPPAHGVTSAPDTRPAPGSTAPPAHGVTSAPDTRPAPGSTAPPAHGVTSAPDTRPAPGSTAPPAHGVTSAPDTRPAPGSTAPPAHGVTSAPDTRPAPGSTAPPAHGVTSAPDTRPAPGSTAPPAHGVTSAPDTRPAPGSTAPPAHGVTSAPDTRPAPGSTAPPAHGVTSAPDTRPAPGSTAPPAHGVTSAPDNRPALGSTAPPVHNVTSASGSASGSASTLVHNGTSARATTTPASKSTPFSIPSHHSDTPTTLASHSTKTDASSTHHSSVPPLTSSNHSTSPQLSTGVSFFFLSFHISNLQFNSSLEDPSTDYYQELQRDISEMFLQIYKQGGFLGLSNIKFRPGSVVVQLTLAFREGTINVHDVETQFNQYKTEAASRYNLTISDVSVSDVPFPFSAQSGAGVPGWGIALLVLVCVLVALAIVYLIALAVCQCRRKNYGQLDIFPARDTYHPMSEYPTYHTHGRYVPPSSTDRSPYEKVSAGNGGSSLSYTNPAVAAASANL

B1: full-length NME7, 42 kDa (other, UniProt Q9Y5B8 1-376, looked up)
chain: MNHSERFVFIAEWYDPNASLLRRYELLFYPGDGSVEMHDVKNHRTFLKRTKYDNLHLEDLFIGNKVNVFSRQLVLIDYGDQYTARQLGSRKEKTLALIKPDAISKAGEIIEIINKAGFTITKLKMMMLSRKEALDFHVDHQSRPFFNELIQFITTGPIIAMEILRDDAICEWKRLLGPANSGVARTDASESIRALFGTDGIRNAAHGPDSFASAAREMELFFPSSGGCGPANTAKFTNCTCCIVKPHAVSEGLLGKILMAIRDAGFEISAMQMFNMDRVNVEEFYEVYKGVVTEYHDMVTEMYSGPCVAMEIQQNNATKTFREFCGPADPEIARHLRPGTLRAIFGKTKIQNAVHCTDLPEDGLLEVQYFFKILDN
notes: Endogenous 42 kDa protein in cell lysates; also called native NME7
On to B1, for which, in the assay with full-length MUC1 [1], the binding result is on record as “no binding”.

B2: NME7AB (ligand)
chain: MEKTLALIKPDAISKAGEIIEIINKAGFTITKLKMMMLSRKEALDFHVDHQSRPFFNELIQFITTGPIIAMEILRDDAICEWKRLLGPANSGVARTDASESIRALFGTDGIRNAAHGPDSFASAAREMELFFPSSGGCGPANTAKFTNCTCCIVKPHAVSEGLLGKILMAIRDAGFEISAMQMFNMDRVNVEEFYEVYKGVVTEYHDMVTEMYSGPCVAMEIQQNNATKTFREFCGPADPEIARHLRPGTLRAIFGKTKIQNAVHCTDLPEDGLLEVQYFFKILDN
notes: In the co-immunoprecipitations and Western blots this is the endogenous 33 kDa species of cell lysates; also called human NME7-AB; 33 kDa NME7-reactive species
In the case of B2, the binding result with full-length MUC1 [2] is reported as “no binding”.

B3: NME7-X1 (ligand)
chain: MMMLSRKEALDFHVDHQSRPFFNELIQFITTGPIIAMEILRDDAICEWKRLLGPANSGVARTDASESIRALFGTDGIRNAAHGPDSFASAAREMELFFPSSGGCGPANTAKFTNCTCCIVKPHAVSEGLLGKILMAIRDAGFEISAMQMFNMDRVNVEEFYEVYKGVVTEYHDMVTEMYSGPCVAMEIQQNNATKTFREFCGPADPEIARHLRPGTLRAIFGKTKIQNAVHCTDLPEDGLLEVQYFFKILDN
notes: Alternative splice isoform of NME7; In the blots it is the endogenous 30 kDa species of cell lysates; also called human NME7-X1; 30 kDa NME7-reactive species
On to B3, for which the binding result with full-length MUC1 [2] is “no binding”.

(Values after patent US20180263964A1 (MINERVA BIOTECHNOLOGIES, published 2018).)
